Test results from patent US20150329642A1 (Genmab, published 2015).

How the values were obtained:
cMetECDHis = target: T1, cMetECDHis (human, UniProt P08581 25-932, limits assumed, biotinylated in the cross-block ELISA of Example 17); test: cross-block ELISA; competitor 005
T1 construct: Expressed in HEK-293F cells; also called soluble cMetECDHis; biotinylated cMetECDHis
Procedure: First, the optimal coating concentrations of the tested anti-c-Met antibodies and the optimal cMetECDHis concentration were determined. Therefore, ELISA wells were coated overnight at 4° C. with anti-c-Met HuMabs serially diluted in PBS (8 μg/mL in 2-fold dilutions). Next, the ELISA wells were washed with PBST (PBS supplemented with 0.05% Tween-20 [Sigma-Aldrich, Zwijndrecht, The Netherlands]) and blocked for one hour at room temperature (RT) with PBSTC (PBST supplemented 2% [v/v] chicken serum [Gibco, Paisley, Scotland]). Subsequently, the ELISA wells were washed with PBST and incubated for one hour at RT with biotinylated cMetECDHis serially diluted in PBSTC (1 μg/mL in 2-fold dilutions). Unbound biotinylated cMetECDHis was washed away with PBST, and bound biotinylated cMetECDHis was incubated for one hour at RT with 0.1 μg/mL Streptavidin-poly-HRP (Sanquin, Amsterdam, The Netherlands) diluted in PBST.
ELISA wells were coated with anti-c-Met antibody at a sub-optimal dose as described above. After blocking of the ELISA wells, they were incubated with the predetermined concentration of biotinylated cMetECDHis in the presence of an excess of anti-c-Met antibody. The reaction was developed as described above. Residual binding was expressed as a percentage relative to the binding observed in the absence of competitor antibody.

cMetSEMA-567His8 = target: T2, cMetSEMA-567His8 (human, UniProt P08581 25-567, limits assumed); test: TR-FRET; displacement of AlexaFluor-647-HGF from cMetSEMA-567His8
T2 construct: In the TR-FRET assay detected by anti-6xhis Europium3+; also called cMetSEMAHis; SEMA domain of c-Met; not shown: C-terminal His tag; the text says His9, the construct name says His8
Procedure: Therefore, the interaction of anti-c-Met antibodies with the SEMA domain of the c-Met receptor was studied using TR-FRET technology. […] The mean fluorescent intensity at 665 nm was measured on the EnVision 2101 Multilabel reader (PerkinElmer).
A 4-fold serial dilution of unlabeled anti-c-Met antibody ranging from 0.49-8000 ng/mL was tested. After overnight incubation at 4° C. in the dark, mean fluorescence intensity at 665 nm was measured using the EnVision 2101 Multilabel reader applying the following settings: Lance/Delfia dual mirror, emission filter 615-665 nm, excitation filter 320 nm, delay time 60 μs, window 100 μs, 100 flashes, 2000 μs per cycle and bidirectional row-by-row reading. To determine IC₅₀ values, the binding curves were analyzed with non-linear regression (sigmoidal dose-response with variable slope) using GraphPad Prism V4.03 software (GraphPad Software, San Diego, Calif., USA).

[1] = target: T3, human c-Met, membrane-bound on cells (human, UniProt P08581 25-1390); test: flow cytometry on A431 cells (PE goat anti-human IgG); second panel
T3 construct: whole, on cells; A431 cells carry on average 30,000 copies of c-Met per cell (Qifi); also called c-Met expressed on A431 cells; c-Met on A549 cells
Procedure: The binding of anti-c-Met antibodies and monovalent forms thereof (also termed “UniBody molecules” herein, see Example 5) to A431 cells expressing membrane-bound c-Met (purchased at ATCC, CRL-1555) was tested using flow cytometry (FACS Canto II, BD Biosciences). […] Binding of anti-c-Met antibodies and UniBody molecules was detected using a Phycoerythrin-conjugated goat-anti-human IgG antibody (Jackson). IgG1-5D5 was used as positive control antibody, and HuMab-KLH was used as isotype control antibody. EC₅₀ values were determined by means of non-linear regression (sigmoidal dose-response with variable slope) using GraphPad Prism V4.03 software (GraphPad Software, San Diego, Calif., USA).
Also maximum binding levels were unchanged between IgG1's and UniBody molecules. For antibodies 005, 006, 008, 035, 045 and 058, on the other hand, a more than 2-fold […] as well as a decrease in maximum binding level was observed when comparing IgG1 with their UniBody counterpart. This was most likely due to the […] (Kd) of these antibodies (see Example 14).

[2] = target: T4, recombinant human c-Met extracellular domain (R&D systems) (human, UniProt P08581 25-932); test: competition ELISA, residual Europium-HGF signal at 615 nm at the lower plateau of the fit; sheet prints no competing mAb ~66000, no HGF-Europium ~600; upper panel
T4 construct: extracellular domain; Bought reagent; also called coated extracellular domain of c-Met; recombinant c-Met
Procedure: (§1) ELISA wells were coated overnight at 4° C. with 0.5 μg/mL recombinant human c-Met extracellular domain (R&D systems, Minneapolis, USA) diluted in PBS. Next, the ELISA wells were washed with PBST (PBS supplemented with 0.05% Tween-20 [Sigma-Aldrich, Zwijndrecht, The Netherlands]) and blocked for one hour at room temperature (RT) with PBST supplemented with 2% (v/v) chicken serum (Gibco, Paisley, Scotland). […] Mean fluorescence intensity at 615 nm was measured using the EnVision 2101 Multilabel reader (PerkinElmer) applying the following settings: Lance/Delfia dual mirror, emission filter 615, excitation filter 340 nm, delay time 400 μs, window 400 μs, 100 flashes, 2000 μs per cycle and bidirectional row-by-row reading. To determine IC₅₀ values, the binding curves were analyzed with non-linear regression (sigmoidal dose-response with variable slope, top-values constrained to a shared value for all data-sets) using GraphPad Prism V4.03 software (GraphPad Software, San Diego, Calif., USA).
(§2) FIG. 5 depicts representative examples of HGF binding inhibition curves of anti-c-Met antibodies for binding to the extracellular domain of recombinant human c-Met. 5D5 was used as positive control antibody. All anti-c-Met antibodies in the experiment shown were able to compete with Europium^{3±}-conjugated HGF for binding to recombinant c-Met. […] Without adding Europium³⁺-conjugated HGF, roughly ˜600 relative fluorescent units (RFU) were detected, indicating the signal when maximal inhibition is accomplished. When binding of Europium³⁺-conjugated HGF was not inhibited, approximately ˜66,000 RFU were detected.

[3] = target: T4, recombinant human c-Met extracellular …; test: competition ELISA on coated recombinant c-Met extracellular domain; blocked ligand Europium-conjugated HGF; column headed EC50 on the sheet, called IC50 in paragraph 270; upper panel
Procedure: as §1, §2

Binder | residual binding, % of no competitor (cMetECDHis) [%] | % inhibition (cMetSEMA-567His8) [%] | IC50 (cMetSEMA-567His8) [µg/mL] | EC50 [1] [nM] | Bottom [2] [RFU] | IC50 [3] [µg/mL]
anti-c-Met HuMab 005 (IgG1) (antibody, V domains shown, also called TH1016-005; PC1016-005) VH: QVQLVQSGAEVKKPGSSVKVSCKASGGTFSSYGFGWVRQAPGQGLEWMGRISPILGIANYAQMFQGRVTITADKSTSTAYMELSSLRSEDTAVYYCARDVGYDWPDTFDIWGQGTMVIVSS VL: DIQMTQSPSSLSASVGDRVTITCRASQGISSWLAWYQQKPEKAPKSLIYAASSLQSGVPSRFSGGGSGTDFTLTISSLQPEDFATYYCQQYNSFPPTFGQGTKVEIK | 7.7 | 92 | 0.16 | 1.56 | 6940 | 0.0362
IgG1-1016-022 (antibody, V domains shown, also called TH1016-022; PC1016-022) VH: QVQLVESGGGVVQPGRSLRLSCAASGFTFSSYAMHWVRQAPGKGLEWVAVISYDGSNKYYADSVKGRFTISRDNSKNTLYLQMNSLRAEDTAVYYCARELLWFGELWGYFDLWGRGTLVTVSS VL: DIQMTQSPSSVSASVGDRVTITCRASQGISSWLAWYQHKPGKAPKLLIYAASSLQSGVPSRFSGSGSGTDFTLTISSLQPEDFATYYCQEASSFTWTFGQGTKVEIK | 37.9 | 77 | 0.37 | 1.1 | 18200 | 0.00927
anti-c-Met HuMab 006 (IgG1) (antibody, V domains shown, also called TH1016-006; PC1016-006) VH: QVQLVQSGAEVKKPGSSVKVSCKASGGTFSSFGIGWVRQAPGQGLEWMGRIFPILGTANYAQMFQGRVTITADKSTSTAYMELTSLRSEDTAVYYCARDVGYDSADAFDIWGQGTMVTVSS VL: DIQMTQSPSSLSASVGDRVTITCRASQGISSWLAWYQQKPEKAPKSLIYAASSLQSGVPSRFSGSGSGTDFTLTISSLQPEDFATYYCQQYNSYPPTFGQGTKVEIK | 11.3 | 92 | 0.16 | 1.92 | 5630 | 0.0799
anti-c-Met HuMab 008 (IgG1) (antibody, V domains shown, also called TH1016-008; PC1016-008) VH: EVQLVQSGAEVKKPGESLKISCKGSGYSFTSYWIGWVRQMPGKGLEWMGIIYPGDSETRYSPSFQGQVTISADKSISTAYLQWSSLKASDTAMYYCARQEITGEFDYWGQGTLVTVSS VL: AIQLTQSPSSLSASVGDRVTITCRASQGISSALAWYQQKPGKAPKLLIYDASSLESGVPSRFSGSGSGTDFTLTISSLQPEDFATYYCQQFNSYPRTFGQGTKVEIK | 63.9 |  |  | 0.554 | 30100 | 0.00788
anti-c-Met HuMab 035 (IgG1) (antibody, V domains shown, also called P1016-035; TH1016-035-D09) VH: EVQLVQSGAEVKKPGESLKISCKGSGYSFTSYWIGWVRQMPGKGLEWMGIIYPGDSDTRYSPSFQGQVTISADKSISTAYLQWNSLKASDTAMYYCARQEITGEFDYWGQGTLVTVSS VL: AIQLTQSPSSLSASVGDRVTITCRASQGISSALAWYQQKPGKAPKLLIYDASSLESGVPSRFSGSGSGTDFTLTISSLQPEDFATYYCQQFNSYPMYTFGQGTKLEIK | 36.7 |  |  |  | 23300 | 0.0348
IgG1-1016-058 (antibody, V domains shown, also called IgG1-058; TH1016-058) VH: EVQLVESGGGLVKPGGSLKLSCAASGFTFSDYYMYWVRQTPEKRLEWVATISDDGSYTYYPDSVKGRFTISRDNAKNNLYLQMSSLKSEDTAMYYCAREGLYYYGSGSYYNQDYWGQGTLVTVSS VL: AIQLTQSPSSLSASVGDRVTITCRASQGLSSALAWYRQKPGKAPKLLIYDASSLESGVPSRFSGSGSGTDFTLTISSLQPEDFATYYCQQFTSYPQITFGQGTRLEIK | 31.4 | 99 | 0.15 |  | 5200 | 0.00727
anti-c-Met HuMab 045 (IgG1) (antibody, V domains shown, also called TH1016-045; PC1016-045) VH: EVQLLESGGGLVQPGGSLRLSCAASGFTFSSYAMSWVRQAPGKGLEWVSVISGSGGITYYADSVKGRFTISRDNSKNTLYLQMNSLRAEDTAVYYCARDRGWGSDYWGQGTLVTVSS VL: EIVLTQSPATLSLSPGERATLSCRASQSVSSYLAWYQQKPGQAPRLLIYDASNRATGIPARFSGSGSGTDFTLTISSLEPEDFAVYYCQQRSNWPFTFGPGTKVDIK | 111 | 92 | 0.17 |  | 12600 | 0.0165
IgG1-024 (antibody, V domains shown, also called TH1016-024; PC1016-024) VH: EVQLLESGGGLVQPGGSLRLSCVASGFTFSSYAMSWVRQAPGKGLEWVSAISGSSGGSTYYVDSVKGRFTISRANSKNTLYLQMNSLRAEDTAVYYCAKDLDRGWMGYFGYWGQGTLVTVSS VL: DIQMTQSPSSVSASVGDRVTITCRASQGISSWLAWYQHKPGKAPKLLIYAASSLQSGVPSRFSGSGSGTDFTLTISSLQPEDFATYYCQQANSFPTFGQGTRLEIK | 98.4 | 95 | 0.39 |  | 13100 | 0.0168
